According to patent publication US20180086841A1:

How the values were obtained:
D43A = assay: flow cytometry on CHO-K1 transfectants, left sub-column
G16A = assay: as above
G89A = assay: as above
H36A = assay: as above
K17A = assay: as above
K38A = assay: as above
N88A = assay: as above
Q91A = assay: as above
S63A = assay: as above
W13A = assay: as above
human CD27 (human) [1] = target: human CD27 (human) (UniProt P26842); assay: flow cytometry MFI, CD4+ T cells in human peripheral blood, n=4
human CD27 (human) [2] = target: human CD27 (human) (UniProt P26842); assay: flow cytometry MFI, CD8+ T cells in human peripheral blood, n=4
R87A = assay: flow cytometry on CHO-K1 transfectants, left sub-column, cell hatched (loss of binding)
R87A, sequence (receptor chain, as listed by the source R87A R87A limits assumed): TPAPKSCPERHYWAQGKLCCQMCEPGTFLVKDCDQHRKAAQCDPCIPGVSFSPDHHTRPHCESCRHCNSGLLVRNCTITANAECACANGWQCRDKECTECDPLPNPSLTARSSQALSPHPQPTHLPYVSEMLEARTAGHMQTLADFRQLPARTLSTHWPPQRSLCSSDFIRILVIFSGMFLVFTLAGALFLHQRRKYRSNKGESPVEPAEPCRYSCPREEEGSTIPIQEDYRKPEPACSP

W90A = assay: as above
W90A, sequence (receptor chain, as listed by the source W90A W90A limits assumed): as the sequence (receptor chain, as listed by the source R87A R87A limits assumed) above, with A87R, W90A counted along it

1F5-hIgG1 (antibody), sequence (VH): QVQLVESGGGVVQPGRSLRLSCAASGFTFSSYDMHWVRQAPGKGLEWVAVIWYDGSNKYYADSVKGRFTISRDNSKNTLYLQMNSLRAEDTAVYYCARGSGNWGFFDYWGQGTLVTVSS
1F5-hIgG1 (antibody), sequence (VL): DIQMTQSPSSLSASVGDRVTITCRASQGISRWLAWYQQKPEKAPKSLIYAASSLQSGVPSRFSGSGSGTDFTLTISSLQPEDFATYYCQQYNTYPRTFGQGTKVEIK
N88A, sequence (receptor chain, as listed by the source N88A N88A limits assumed): as the sequence (receptor chain, as listed by the source R87A R87A limits assumed) above, with A87R, N88A counted along it
H36A, sequence (receptor chain, as listed by the source H36A H36A limits assumed): as the sequence (receptor chain, as listed by the source R87A R87A limits assumed) above, with H36A, A87R counted along it
G16A, sequence (receptor chain, as listed by the source G16A G16A limits assumed): as the sequence (receptor chain, as listed by the source R87A R87A limits assumed) above, with G16A, A87R counted along it
W13A, sequence (receptor chain, as listed by the source W13A W13A limits assumed): as the sequence (receptor chain, as listed by the source R87A R87A limits assumed) above, with W13A, A87R counted along it
G89A, sequence (receptor chain, as listed by the source G89A G89A limits assumed): as the sequence (receptor chain, as listed by the source R87A R87A limits assumed) above, with A87R, G89A counted along it
D43A, sequence (receptor chain, as listed by the source D43A D43A limits assumed): as the sequence (receptor chain, as listed by the source R87A R87A limits assumed) above, with D43A, A87R counted along it
K38A, sequence (receptor chain, as listed by the source K38A K38A limits assumed): as the sequence (receptor chain, as listed by the source R87A R87A limits assumed) above, with K38A, A87R counted along it
S63A, sequence (receptor chain, as listed by the source S63A S63A limits assumed): as the sequence (receptor chain, as listed by the source R87A R87A limits assumed) above, with S63A, A87R counted along it
Q91A, sequence (receptor chain, as listed by the source Q91A Q91A limits assumed): as the sequence (receptor chain, as listed by the source R87A R87A limits assumed) above, with A87R, Q91A counted along it
K17A, sequence (receptor chain, as listed by the source K17A K17A limits assumed): as the sequence (receptor chain, as listed by the source R87A R87A limits assumed) above, with K17A, A87R counted along it

Q: Which binding, WT hCD27 = 100 (GM FITC) (D43A) does the source give for 1F5-hIgG1 (antibody) here?
A: 202%

Q: And the binding, WT hCD27 = 100 (GM FITC) (G16A)?
A: 96%

Q: What about the binding, WT hCD27 = 100 (GM FITC) (G89A) of the same substance?
A: 103%

Q: And the binding, WT hCD27 = 100 (GM FITC) (H36A)?
A: 116%

Q: What about the binding, WT hCD27 = 100 (GM FITC) (K17A) of the same substance?
A: 95.1%

Q: What about the binding, WT hCD27 = 100 (GM FITC) (K38A) of the same substance?
A: 96.5%

Q: What about the binding, WT hCD27 = 100 (GM FITC) (N88A) of the same substance?
A: 153%

Q: And the binding, WT hCD27 = 100 (GM FITC) (Q91A)?
A: 156%

Q: What about the binding, WT hCD27 = 100 (GM FITC) (S63A) of the same substance?
A: 144%

Q: And the binding, WT hCD27 = 100 (GM FITC) (W13A)?
A: 89.5%

Q: And the EC50 (human CD27 (human) [1])?
A: 1.54 nM

Q: What about the EC50 (human CD27 (human) [2]) of the same substance?
A: 1.3 nM

Q: What about the binding, WT hCD27 = 100 (GM FITC) (R87A) of the same substance?
A: 40.8%

Q: And the binding, WT hCD27 = 100 (GM FITC) (W90A)?
A: 42.5%
